Values belong to the binder of their own block, whether it stands above or below them.
How the values were obtained:
Assay in all cases: two-hybrid library CCNG1;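 also: natural log of median RNA to DNA barcode read ratio; higher means stronger binding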
4H967-bH = molecular target: T1, 4H967-bH
T1 chain: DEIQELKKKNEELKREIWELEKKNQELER

O12 = molecular target: T2, O12
T2 chain: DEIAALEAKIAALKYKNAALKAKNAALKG

4H1845-bH = molecular target: T3, 4H1845-bH
T3 chain: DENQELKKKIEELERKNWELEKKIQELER

4H2442-bH = molecular target: T4, 4H2442-bH
T4 chain: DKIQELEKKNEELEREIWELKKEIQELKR

4H2576-bH = molecular target: T5, 4H2576-bH
T5 chain: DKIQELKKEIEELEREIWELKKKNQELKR

4H2610-bH = molecular target: T6, 4H2610-bH
T6 chain: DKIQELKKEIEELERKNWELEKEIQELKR

4H2618-bH = molecular target: T7, 4H2618-bH
T7 chain: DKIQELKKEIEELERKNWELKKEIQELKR

4H2667-bH = molecular target: T8, 4H2667-bH
T8 chain: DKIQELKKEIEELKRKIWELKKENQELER

4H2697-bH = molecular target: T9, 4H2697-bH
T9 chain: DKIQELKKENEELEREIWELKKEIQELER

4H2717-bN = molecular target: T10, 4H2717-bN
T10 chain: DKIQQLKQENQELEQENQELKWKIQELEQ

4H2729-bH = molecular target: T11, 4H2729-bH
T11 chain: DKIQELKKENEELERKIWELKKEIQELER

4H3112-bH = molecular target: T12, 4H3112-bH
T12 chain: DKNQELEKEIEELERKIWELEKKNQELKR

4H3185-bH = molecular target: T13, 4H3185-bH
T13 chain: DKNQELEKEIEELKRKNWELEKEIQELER

4H3189-bH = molecular target: T14, 4H3189-bH
T14 chain: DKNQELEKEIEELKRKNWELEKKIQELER

4H331-bH = molecular target: T15, 4H331-bH
T15 chain: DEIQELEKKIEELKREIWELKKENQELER

4H3354-bH = molecular target: T16, 4H3354-bH
T16 chain: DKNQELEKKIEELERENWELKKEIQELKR

4H338-bH = molecular target: T17, 4H338-bH
T17 chain: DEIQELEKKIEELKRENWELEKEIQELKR

4H3427-bH = molecular target: T18, 4H3427-bH
T18 chain: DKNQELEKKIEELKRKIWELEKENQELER

4H3606-bH = molecular target: T19, 4H3606-bH
T19 chain: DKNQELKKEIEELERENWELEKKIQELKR

4H370-bH = molecular target: T20, 4H370-bH
T20 chain: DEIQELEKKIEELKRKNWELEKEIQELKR

4H3782-bH = molecular target: T21, 4H3782-bH
T21 chain: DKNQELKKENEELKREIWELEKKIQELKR

4H3843-bH = molecular target: T22, 4H3843-bH
T22 chain: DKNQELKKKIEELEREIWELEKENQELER

4H3855-bH = molecular target: T23, 4H3855-bH
T23 chain: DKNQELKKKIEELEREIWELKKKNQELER

4H4001-bH = molecular target: T24, 4H4001-bH
T24 chain: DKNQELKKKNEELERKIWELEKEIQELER

4H4001-bN = molecular target: T25, 4H4001-bN
T25 chain: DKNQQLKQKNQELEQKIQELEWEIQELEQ

4H454-bH = molecular target: T26, 4H454-bH
T26 chain: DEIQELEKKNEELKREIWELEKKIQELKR

4H462-bH = molecular target: T27, 4H462-bH
T27 chain: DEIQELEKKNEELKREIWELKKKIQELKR

4H568-bH = molecular target: T28, 4H568-bH
T28 chain: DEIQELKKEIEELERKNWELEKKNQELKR

4H575-bA = molecular target: T29, 4H575-bA
T29 chain: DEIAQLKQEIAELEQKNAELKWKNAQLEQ

4H607-bH = molecular target: T30, 4H607-bH
T30 chain: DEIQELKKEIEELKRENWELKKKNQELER

4H687-bH = molecular target: T31, 4H687-bH
T31 chain: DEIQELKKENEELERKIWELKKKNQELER

4H717-bH = molecular target: T32, 4H717-bH
T32 chain: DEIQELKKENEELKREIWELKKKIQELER

4H72-bH = molecular target: T33, 4H72-bH
T33 chain: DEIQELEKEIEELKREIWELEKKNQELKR

4H754-bH = molecular target: T34, 4H754-bH
T34 chain: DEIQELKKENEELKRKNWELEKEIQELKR

4H797-bH = molecular target: T35, 4H797-bH
T35 chain: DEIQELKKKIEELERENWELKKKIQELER

4H883-bH = molecular target: T36, 4H883-bH
T36 chain: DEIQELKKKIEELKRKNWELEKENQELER

4H908-bH = molecular target: T37, 4H908-bH
T37 chain: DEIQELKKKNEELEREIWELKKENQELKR

4H918-bH = molecular target: T38, 4H918-bH
T38 chain: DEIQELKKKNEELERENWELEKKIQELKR

4H918-bN = molecular target: T39, 4H918-bN
T39 chain: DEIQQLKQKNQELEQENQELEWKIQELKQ

4H953-bH = molecular target: T40, 4H953-bH
T40 chain: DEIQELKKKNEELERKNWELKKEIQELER

O7-bN = molecular target: T41, O7-bN
T41 chain: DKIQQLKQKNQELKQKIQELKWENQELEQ

interaction score (4H967-bH): -0.406 | interaction score (O12): -1.53
Binder: DEIQELKKKNEELKREIWELEKKNQELER [4H967-bH]

interaction score (4H1845-bH): 0.142 | interaction score (4H2442-bH): -0.237 | interaction score (4H2576-bH): -1.7 | interaction score (4H2610-bH): -0.549 | interaction score (4H2618-bH): -1.52 | interaction score (4H2667-bH): 0.349 | interaction score (4H2697-bH): 0.106 | interaction score (4H2717-bN): -0.601 | interaction score (4H2729-bH): 0.473 | interaction score (4H3112-bH): -0.698 | interaction score (4H3185-bH): 0.639 | interaction score (4H3189-bH): 0.462 | interaction score (4H331-bH): -1.2 | interaction score (4H3354-bH): 0.334 | interaction score (4H338-bH): -0.243 | interaction score (4H3427-bH): -0.323 | interaction score (4H3606-bH): 0.808 | interaction score (4H370-bH): -0.319 | interaction score (4H3782-bH): 0.165 | interaction score (4H3843-bH): -0.224 | interaction score (4H3855-bH): -0.295 | interaction score (4H4001-bH): -1.03 | interaction score (4H4001-bN): -0.805 | interaction score (4H454-bH): -0.0899 | interaction score (4H462-bH): -0.599 | interaction score (4H568-bH): -0.447 | interaction score (4H575-bA): -1.1 | interaction score (4H607-bH): -2.75 | interaction score (4H687-bH): -0.46 | interaction score (4H717-bH): 0.319 | interaction score (4H72-bH): 0.142 | interaction score (4H754-bH): 0.391 | interaction score (4H797-bH): 0.175 | interaction score (4H883-bH): 0.0604 | interaction score (4H908-bH): -1 | interaction score (4H918-bH): -0.512 | interaction score (4H918-bN): -1.11 | interaction score (4H953-bH): -0.598 | interaction score (4H967-bH): -0.511 | interaction score (O7-bN): -0.332
Binder: DENQELKKKIEELERKNWELEKKIQELER [4H1845-bH]

— article PMC10397247
